Columns and labels:
[1] = biological target: T1, Rhesus IGF-1R expressed on CHO cells (rhesus monkey, UniProt I2CWY3 31-1367); assay: flow cytometry and confocal microscopy, CHO transfectants
T1 construct: whole, on cells; also called Rhesus IGF-1R/CHO

human IGF-1R(1-903)-Fc [2] = biological target: T2, human IGF-1R(1-903)-Fc (human, UniProt P08069 31-933); assay: ELISA, plate coated with soluble IGF-1 receptor Fc fusion protein, detection with anti-human kappa-HRP
T2 construct: Made by Biogen Idec; Multimerises through IGF-1R and Fc; also called hIGF-1R-Fc; IGF-1R-Fc; not shown: C-terminal human IgG1-Fc tag
Method: The plate was washed with phosphate-buffered saline (PBS, Irvine Scientific, Cat#9240), pH 7.4 plus 0.025% Tween 20 in the Skan Washer 300 (Skatron Instruments), blocked with buffer containing 1% nonfat milk, 0.05% Tween 20 in PBS, pH 7.4, and then incubated at room temperature for 1 hour. After incubation plate was washed with PBS plus 0.025% Tween 20 in the Skan Washer 300. […] Following a one hour incubation at room temperature, plate was washed with PBS plus 0.025% Tween 20 in the Skan Washer 300. […] Plate incubated for 1 hour at room temperature was washed with PBS plus 0.025% Tween 20 in the Skan Washer 300. […] The absorbance was measured at 450 nm, background 540 nm for TMB using the Molecular Devices plate reader. Data was analyzed using the SOFTMAX PRO software package version 4.3 LS (Molecular Devices Corp.).

[3] = biological target: T3, human IGF-1R expressed on cells (human, UniProt P08069 31-1367); assay: cell-based or functional assay
[4] = biological target: T4, murine IGF-1R expressed on cells (mouse, UniProt Q60751 31-1373); assay: binding to CHO transfectants
T4 construct: whole, on cells; also called mouse IGF-1R
T4 sequence (Q60751 31-1373): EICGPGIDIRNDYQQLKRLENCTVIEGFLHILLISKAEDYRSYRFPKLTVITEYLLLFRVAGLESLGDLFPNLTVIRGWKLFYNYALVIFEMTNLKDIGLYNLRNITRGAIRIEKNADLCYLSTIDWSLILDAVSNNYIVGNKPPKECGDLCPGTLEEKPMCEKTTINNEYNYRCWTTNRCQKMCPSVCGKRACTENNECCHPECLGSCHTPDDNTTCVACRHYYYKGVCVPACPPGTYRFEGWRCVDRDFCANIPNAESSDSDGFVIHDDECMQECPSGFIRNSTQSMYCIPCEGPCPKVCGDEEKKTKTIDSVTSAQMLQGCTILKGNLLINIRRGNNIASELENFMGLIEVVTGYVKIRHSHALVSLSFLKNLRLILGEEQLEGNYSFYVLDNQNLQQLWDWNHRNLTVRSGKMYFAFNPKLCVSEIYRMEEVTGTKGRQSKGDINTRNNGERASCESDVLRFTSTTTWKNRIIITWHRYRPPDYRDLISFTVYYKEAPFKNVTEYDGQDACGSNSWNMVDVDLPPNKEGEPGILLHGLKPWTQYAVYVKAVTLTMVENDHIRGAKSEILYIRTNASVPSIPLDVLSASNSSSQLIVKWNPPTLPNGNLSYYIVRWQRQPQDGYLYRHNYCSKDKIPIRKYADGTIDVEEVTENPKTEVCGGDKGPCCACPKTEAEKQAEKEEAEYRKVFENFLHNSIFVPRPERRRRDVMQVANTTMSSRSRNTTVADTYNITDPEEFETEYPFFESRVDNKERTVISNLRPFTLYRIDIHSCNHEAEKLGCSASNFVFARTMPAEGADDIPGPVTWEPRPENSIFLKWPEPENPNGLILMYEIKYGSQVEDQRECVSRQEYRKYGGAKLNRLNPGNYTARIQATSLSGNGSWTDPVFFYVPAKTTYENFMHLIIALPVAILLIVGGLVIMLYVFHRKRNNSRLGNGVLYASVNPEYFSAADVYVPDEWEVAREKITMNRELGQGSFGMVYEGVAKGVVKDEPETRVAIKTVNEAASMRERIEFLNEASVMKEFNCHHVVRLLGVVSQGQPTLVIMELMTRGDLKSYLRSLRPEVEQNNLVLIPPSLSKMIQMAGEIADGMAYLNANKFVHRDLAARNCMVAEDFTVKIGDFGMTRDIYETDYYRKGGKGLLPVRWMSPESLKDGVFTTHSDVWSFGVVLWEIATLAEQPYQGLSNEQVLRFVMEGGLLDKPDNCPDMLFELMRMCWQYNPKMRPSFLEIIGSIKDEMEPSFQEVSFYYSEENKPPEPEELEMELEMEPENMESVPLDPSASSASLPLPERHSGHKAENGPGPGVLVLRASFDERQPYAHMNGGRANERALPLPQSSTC

[5] = biological target: T5, human insulin receptor expressed in mammalian cells (UniProt P06213 28-1382, limits assumed); assay: immunoprecipitation from IR CHO lysate, western blot with mouse anti-human IR
T5 construct: whole, on cells; Cells were solubilised with Triton X-100 before immunoprecipitation; also called INSR; IR
Method: Recombinant IGF-1R and insulin receptor (IR) were independently expressed in mammalian cells (3T3 or CHO). […] Antibody/antigen complexes were released from the beads by acid treatment, applied to Tris-Glycine SDS-PAGE gels and blotted to nitrocellulose membranes. Detection was performed using mouse anti-human IR (FIG. 24A) or mouse anti-human IGF-1R (FIG. 24B) and goat α-mouse IgG.

human IGF-1R(1-903)-Fc [6] = biological target: T2, human IGF-1R(1-903)-Fc; assay: ELISA on hIGF-1R-Fc, competitor biotinylated M14-G11
[7] = biological target: T6, human IGF-1R(1-902)-His10 (human, UniProt P08069 31-932); assay: SPR, antibody over captured IGF-1R-10His
T6 construct: Cy5-labelled in tr-FRET; also called hIGF-1R-His10; IGF-1R-His
Method: All surface plasmon resonance (SPR) experiments were performed on a Biacore 3000 set to 25° C. using HBS-EP (Biacore, Cat. No. BR-1001-88) as the running buffer. A biotin-labeled anti-HisTag antibody (biotin-PENTA-His, Qiagen Cat. No. 34440) was immobilized to saturation on a Biacore SA chip (Cat. No. BR-1000-32) surface by injection at 500 nM in HBS-EP buffer. […] Subsequent to IGF-1R injections, flow rates were increased to 20 μL/min. A second, 130 μL injection of anti-IGF-1R antibody or Fab was performed to investigate interactions with the receptor. Each antibody and Fab was serially diluted from 64 nM to 0.5 nM to obtain concentration dependent kinetic binding curves. Each injection series was regenerated using 3×10 μL injections of 10 mM Acetate, pH 4.0, at 20 μL/min. Each curve was double referenced using (1) data obtained from a streptavidin surface devoid of IGF-1R and (2) data from a primary injection of IGF-1R followed by a secondary injection of HBS-EP buffer. The concentration series for each antibody and Fab was fit to the 1:1 binding model provided within the BiaEvaluation software of the manufacturer.
The rates at which the antibodies accumulate on the IGF-1R coated surface when applied at various concentrations as well as the rates at which they dissociated during applications of pure buffer were investigated by fitting the data to a 1:1 binding model. Approximate kinetic rate constants and equilibrium dissociation constant were calculated (Table 14).

human IGF-1R(1-903)-Fc [8] = biological target: T2, human IGF-1R(1-903)-Fc; assay: ELISA on hIGF-1R-Fc, competitor Zenon-labelled αIR3
human INSR(28-956)-His10 = biological target: T7, human INSR(28-956)-His10 (human, UniProt P06213 28-956); assay: ELISA, plate coated with rh-INSR
T7 construct: range 28-956; Bought (R&D Systems 1544-IR); also called rh-INSR; soluble insulin receptor
Method: ELISA assays were performed to determine specific binding of the Fab fragment antibodies to soluble IGF-1R over the insulin receptor. […] Color development was stopped by addition of 4NH₂SO₄ and optical density is measured at 450 nm using a Molecular Devices plate reader and binding curves are generated.

[9] = biological target: T3, human IGF-1R expressed on cells; assay: flow cytometry, MCF-7 cells
Method: The ability of Fabs to bind to the wild type IGF-1R was determined by flowcytometry using MCF-7 tumor cell line.
MCF-7 cells (Human Breast Adenocarcinoma from NCI) were split 24 hours prior to the setup of the assay to obtain 70% confluent monolayer. Routinely, MCF-7 cell line was maintained within 20 passages. Cells were lifted with cell dissociation buffer (Gibco catalog #13151-014), counted, washed and adjusted to 1×10⁶ cells/ml and one ml of cells were then added to each tube (12×75 mm tube Falcon catalog# 352054). Cells were pelleted and supernatant removed by centrifugation at 1200 rpm for 5 min and 100 μl of diluted antibodies were then added to the cell pellet. Purified Fabs were tested at a starting concentration of either 210 or 60 μg/ml with 1:3 dilutions in FACS buffer, down to 0.001 μg/ml. FACS buffer used throughout the assay was PBS (without Ca++/Mg++) containing 1% BSA (Sigma catalog# A-7906; Sigma-Aldrich Corp. (St. Louis, Mo., USA)) and 0.1% Sodium Azide (Sigma catalog #S2002). […] Samples were allowed to incubate on ice for 1 hour and 15 minutes then were washed with 2 ml FACS buffer and centrifuged at 1200 rpm for 5 minutes at 4° C. The supernatant was aspirated and 100 μl of the secondary detection antibody was added to each corresponding tube in FACS buffer. Samples were then incubated for 30 minutes on ice, in the dark. Cells were washed as described above, then, re-suspended in […] FACS buffer per tube/sample.
Cells were stained for live cell determination with Propidium Iodide staining solution (PI for dead cell exclusion; BD Pharmingen catalog# 51-66211E or 556463; use at 1:500 final in FACS buffer). Samples were run on the FACSCalibur instrument (Becton Dickinson) with 10,000 live events collected per sample.

[10] = biological target: T6, human IGF-1R(1-902)-His10; assay: protein ELISA
[11] = biological target: T3, human IGF-1R expressed on cells; assay: binding to MCF-7 tumor cells

T1 sequence (I2CWY3 entry or part of it): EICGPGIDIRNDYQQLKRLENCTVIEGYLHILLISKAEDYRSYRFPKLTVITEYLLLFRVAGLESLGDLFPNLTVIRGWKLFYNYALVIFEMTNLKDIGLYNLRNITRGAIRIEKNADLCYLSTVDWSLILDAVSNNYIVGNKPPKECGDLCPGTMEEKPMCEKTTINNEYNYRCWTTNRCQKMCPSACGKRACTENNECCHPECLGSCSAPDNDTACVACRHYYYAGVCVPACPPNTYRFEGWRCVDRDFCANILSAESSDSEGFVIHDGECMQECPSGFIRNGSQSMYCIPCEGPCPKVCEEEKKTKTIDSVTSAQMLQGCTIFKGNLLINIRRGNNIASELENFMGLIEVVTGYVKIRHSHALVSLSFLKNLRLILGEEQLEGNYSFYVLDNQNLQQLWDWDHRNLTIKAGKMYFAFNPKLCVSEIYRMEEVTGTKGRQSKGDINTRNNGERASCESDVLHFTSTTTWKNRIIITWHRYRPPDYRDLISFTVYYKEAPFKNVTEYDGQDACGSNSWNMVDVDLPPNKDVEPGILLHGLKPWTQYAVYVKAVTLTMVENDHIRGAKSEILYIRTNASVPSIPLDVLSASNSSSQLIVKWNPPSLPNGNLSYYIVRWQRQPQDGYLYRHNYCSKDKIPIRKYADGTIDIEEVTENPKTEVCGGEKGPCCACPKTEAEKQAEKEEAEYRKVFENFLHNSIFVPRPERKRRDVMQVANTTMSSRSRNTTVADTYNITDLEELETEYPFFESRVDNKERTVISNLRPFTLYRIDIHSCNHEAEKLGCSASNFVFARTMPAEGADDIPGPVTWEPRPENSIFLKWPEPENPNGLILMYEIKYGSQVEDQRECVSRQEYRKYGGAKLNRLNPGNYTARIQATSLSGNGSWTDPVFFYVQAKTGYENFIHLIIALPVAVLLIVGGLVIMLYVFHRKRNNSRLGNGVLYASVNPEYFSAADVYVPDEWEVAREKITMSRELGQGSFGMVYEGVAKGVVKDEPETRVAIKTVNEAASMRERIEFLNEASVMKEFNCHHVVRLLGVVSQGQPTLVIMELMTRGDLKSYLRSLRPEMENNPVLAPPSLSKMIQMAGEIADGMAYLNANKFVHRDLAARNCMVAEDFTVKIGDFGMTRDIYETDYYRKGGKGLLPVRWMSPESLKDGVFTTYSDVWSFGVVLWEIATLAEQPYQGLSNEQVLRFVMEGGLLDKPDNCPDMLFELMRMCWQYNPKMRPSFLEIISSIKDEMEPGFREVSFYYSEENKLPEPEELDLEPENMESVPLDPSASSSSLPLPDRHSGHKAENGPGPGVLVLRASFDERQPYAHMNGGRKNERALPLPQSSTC

Binder | EC50 (read off the curve) (human IGF-1R(1-903)-Fc [2]) | EC50 [10] | EC50 [11] | also measured
M14-G11.G4.P (antibody, human IgG4, V domains shown, Full-length human IgG4.P, kappa; also called M14.G11.P; G4 version of M14-G11) VH: EVQLLESGGGLVQPGGSLRLSCAASGFTFSNYPMYWVRQAPGKGLEWVSRISSSGGRTVYADSVKGRFTISRDNSKNTLYLQMNSLRAEDTAVYYCARDRWSRSAAEYGLGGYWGQGTLVTVSS VL: not shown | ~0.06 nM | – | – | binding result [1]: binds; inhibition of IGF-1 and IGF-2 mediated IGF-1R receptor phosphorylation (EC50) [3]: < 1 nM; binding result [4]: binds
M12-G04.G4.P (antibody, human IgG4, V domains shown, Full-length human IgG4.P, kappa; also called G4 version of M12-G04) VH: EVQLLESGGGLVQPGGSLRLSCAASGFTFSKYTMHWVRQAPGKGLEWVSSIVSSGGWTDYADSVKGRFTISRDNSKNTLYLQMNSLRAEDTAVYYCARDRSIAAAGTGWSVSFVDWFDPWGQGTLVTVSS VL: DIQMTQSPLSLSASVGDRVTITCRASQSINGYLNWYQQKPGKAPNLLIYATSSLQSGVPSRFSGSGSGTDFTLTISSLQPEDFATYYCQQSYSTPPYTFGQGTKLEIK | ~0.2 nM | – | – | –
M14-G11.G4.P.agly (antibody, human IgG4 S228P, kappa, V domains shown, Full-length human aglycosylated IgG4.P, kappa; Places that say only 'M14-G11 antibody' were assigned to this version; also called M14-G11_Ab; Biotin-G11) VH: EVQLLESGGGLVQPGGSLRLSCAASGFTFSNYPMYWVRQAPGKGLEWVSRISSSGGRTVYADSVKGRFTISRDNSKNTLYLQMNSLRAEDTAVYYCARDRWSRSAAEYGLGGYWGQGTLVTVSS VL: not shown | ~0.06 nM | – | – | binding result [5]: no binding; percent competition (relative to self-competition) (human IGF-1R(1-903)-Fc [6]): 90 to 100%; Kd [7]: 0.11 nM; koff [7]: 0.00011 s⁻¹; kon [7]: 1e+06 M⁻¹ s⁻¹; percent competition (relative to self-competition) (human IGF-1R(1-903)-Fc [8]): 50 to 70%
M12-G04 Fab (Fab, V domains shown, Human phage Fab, kappa) VH: EVQLLESGGGLVQPGGSLRLSCAASGFTFSKYTMHWVRQAPGKGLEWVSSIVSSGGWTDYADSVKGRFTISRDNSKNTLYLQMNSLRAEDTAVYYCARDRSIAAAGTGWSVSFVDWFDPWGQGTLVTVSS VL: DIQMTQSPLSLSASVGDRVTITCRASQSINGYLNWYQQKPGKAPNLLIYATSSLQSGVPSRFSGSGSGTDFTLTISSLQPEDFATYYCQQSYSTPPYTFGQGTKLEIK | – | – | – | binding result (human INSR(28-956)-His10): no binding (tested: about 5000 nM); EC50 [9]: 25 nM
P2A7.3E11 (antibody, IgG2a, V domains shown, Murine hybridoma antibody, IgG2a/k; also called muP2A7) VH: QVQLQQSGPELVKPGASVKMSCKASGNTFTDYVINWVKQRTGQGLEWIGEIYPGNENTYYNEKFKGKATLTADKSSNTAYMQLSSLTSEDSAVYFCARGIYYYGSRTRTMDYWGQGTSVTVSS VL: EVVLTQSPTAMAASPGEKITITCSASSTLSSNYLHWYQQKPGFSPKLLIYRTSNLASGVPGRFSGSGSGTSYSLTIGTMEAEDVATYYCQQGSSIPLTFGAGTKLELK | – | 0.011 nM | 0.447 nM | –
P1A2.2B11 (antibody, IgG2b, V domains shown, Murine hybridoma antibody, IgG2b/k) VH: QIQLVQSGPELKKPGETVKISCKASGYTFTNHGMNWVKQAPGKGLKWMGWNTSTGEPTYADDFKGRFAFSLETSASTAFLQINNLKNEDTASYFCASPLYYMYGRYIDVWGAGTAVTVSS VL: DIQMTQTTSSLSASLGDRVTISCRASQDISNYLNWYQQKPDGTIKLLIYYTSRLHSGVPSRFSGSGSGTDYSLTISNLEQEDFATYFCQQGKTLPWTFGGGTKLEIK | – | 0.023 nM | 1.1 nM | –
P1E2.3B12 (antibody, IgG2b, V domains shown, Murine hybridoma antibody, IgG2b/k; also called P1E2 (hybridoma)) VH: QVQLQQPGAELVKPGASVKLSCKASGYTFTSYWMHWVKQRPGQGLEWIGEINPTYGRSNYNEKFKSKATLTVDKSSSTAYMQLSSLTSEDSAVYYCARLVRLRYFDVWGAGTTVTVSS VL: DIVMTQAAFSNPVTLGTSASISCRSSKSLLHSNGITYLYWYLQKPGQSPQLLIYQMSNLASGVPDRFSSSGSGTDFTLRISRVEAEDVGVYYCAQNLELPYTFGGGTKLEIK | – | 0.016 nM | 0.391 nM | –
P1G10.2B8 (antibody, IgG1, V domains shown, Murine hybridoma antibody, IgG1/k) VH: QIQLVQSGPDLKKPGETVKISCKASGYTFTNHGMNWVKQAPGKDLKWMGWINTNTGEPTYADDFKGRFAFSLETSASTAYLQINNLKNEDTATYFCASPLYYRNGRYFDVWGAGTTVTVSS VL: DIQMTQTTSSLSASLGDRVTISCRASQDISNYLNWYQQKPDGSVKLLIYYTSRLHSGVPSRFSGSGSGTDYSLTISNLEQEDIATYFCQQGKTLPWTFGGGTKLEIK | – | 0.075 nM | 2.06 nM | –

Reference: patent US20090291088A1 (Biogen, published 2009)
